T1: Bzz1-2, P38822
T1 sequence (P38822 568-633, looked up): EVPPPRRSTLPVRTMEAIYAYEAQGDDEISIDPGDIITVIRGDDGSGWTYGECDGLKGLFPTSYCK

T2: Pin3, Q06449
T2 sequence (Q06449 53-122, looked up): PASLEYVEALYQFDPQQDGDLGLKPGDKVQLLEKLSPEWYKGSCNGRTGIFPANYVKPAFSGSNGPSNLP

T3: Pex13, P80667
T3 sequence (P80667 295-386, looked up): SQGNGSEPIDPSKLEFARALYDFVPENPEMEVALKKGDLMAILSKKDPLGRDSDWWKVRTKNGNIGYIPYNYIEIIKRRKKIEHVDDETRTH

T4: Nbp2, Q12163
T4 sequence (Q12163 103-180, looked up): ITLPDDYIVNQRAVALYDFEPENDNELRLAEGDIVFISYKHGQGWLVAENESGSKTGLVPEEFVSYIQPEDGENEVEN

T5: Abp1, P15891
T5 sequence (P15891 535-592, looked up): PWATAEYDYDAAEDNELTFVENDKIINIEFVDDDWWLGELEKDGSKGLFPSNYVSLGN

T6: Cyk3, Q07533
T6 sequence (Q07533 1-83, looked up): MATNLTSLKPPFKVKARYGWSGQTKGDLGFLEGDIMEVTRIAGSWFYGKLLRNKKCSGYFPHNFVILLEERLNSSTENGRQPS

T7: Bzz1-1, P38822
T7 sequence (P38822 478-572, looked up): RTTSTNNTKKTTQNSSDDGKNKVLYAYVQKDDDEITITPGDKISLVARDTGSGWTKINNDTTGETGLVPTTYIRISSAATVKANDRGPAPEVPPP

T8: Hof1, Q05080
T8 sequence (Q05080 590-669, looked up): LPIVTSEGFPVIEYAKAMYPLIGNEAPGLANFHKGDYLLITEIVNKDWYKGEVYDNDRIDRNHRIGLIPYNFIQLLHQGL

T9: Bud14, P27637
T9 sequence (P27637 247-328, looked up): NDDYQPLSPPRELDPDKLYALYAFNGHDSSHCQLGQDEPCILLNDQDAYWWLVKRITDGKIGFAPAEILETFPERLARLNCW

T10: Sla1-3, P32790
T10 sequence (P32790 344-424, looked up): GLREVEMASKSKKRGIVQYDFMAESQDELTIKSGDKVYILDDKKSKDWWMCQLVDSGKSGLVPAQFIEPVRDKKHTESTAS

T11: Sla1-2, P32790
T11 sequence (P32790 60-140, looked up): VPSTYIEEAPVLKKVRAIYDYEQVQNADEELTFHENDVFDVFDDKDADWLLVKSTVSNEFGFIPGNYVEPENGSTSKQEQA

T12: Fus1, P11710
T12 sequence (P11710 432-512, looked up): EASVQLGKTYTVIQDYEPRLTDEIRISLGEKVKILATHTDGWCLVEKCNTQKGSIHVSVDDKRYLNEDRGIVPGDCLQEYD

T13: Lsb4, P32793
T13 sequence (P32793 402-468, looked up): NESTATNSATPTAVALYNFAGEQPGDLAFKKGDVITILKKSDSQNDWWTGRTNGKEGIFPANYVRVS

T14: Bbc1, P47068
T14 sequence (P47068 1-78, looked up): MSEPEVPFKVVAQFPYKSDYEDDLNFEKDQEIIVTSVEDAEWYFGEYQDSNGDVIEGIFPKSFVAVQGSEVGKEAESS

T15: Lsb1, P53281
T15 sequence (P53281 45-122, looked up): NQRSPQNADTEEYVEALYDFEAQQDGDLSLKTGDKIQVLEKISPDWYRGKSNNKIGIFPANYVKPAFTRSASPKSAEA

T16: Cdc25, P04821
T16 sequence (P04821 50-136, looked up): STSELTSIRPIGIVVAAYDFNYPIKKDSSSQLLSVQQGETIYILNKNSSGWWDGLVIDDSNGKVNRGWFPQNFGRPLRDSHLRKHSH

T17: Myo5, Q04439
T17 sequence (Q04439 1072-1160, looked up): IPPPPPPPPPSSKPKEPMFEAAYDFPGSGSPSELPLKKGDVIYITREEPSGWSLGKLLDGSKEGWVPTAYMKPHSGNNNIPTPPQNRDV

T18: Boi1, P38041
T18 sequence (P38041 1-86, looked up): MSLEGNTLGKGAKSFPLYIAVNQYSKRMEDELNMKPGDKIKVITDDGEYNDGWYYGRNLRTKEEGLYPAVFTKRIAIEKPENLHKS

T19: Lsb3, P43603
T19 sequence (P43603 385-451, looked up): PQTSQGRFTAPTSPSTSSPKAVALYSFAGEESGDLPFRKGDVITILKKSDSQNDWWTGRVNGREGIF

T20: Boi2, P39969
T20 sequence (P39969 32-116, looked up): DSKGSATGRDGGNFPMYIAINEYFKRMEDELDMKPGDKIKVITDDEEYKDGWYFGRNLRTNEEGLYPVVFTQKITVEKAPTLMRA

T21: Hse1, P38753
T21 sequence (P38753 208-285, looked up): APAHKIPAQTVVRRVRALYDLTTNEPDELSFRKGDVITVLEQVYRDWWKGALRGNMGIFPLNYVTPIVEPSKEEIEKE


Legend:
Assay in all cases: SPOT array
Bem1-2, P29366 = details: median of control spots 4347
Bzz1-2, P38822 = target: T1, Bzz1-2, P38822; details: median of control spots 4538
Myo3, P36006 = details: median of control spots 468
Pin3, Q06449 = target: T2, Pin3, Q06449; details: median of control spots 2171
Pex13, P80667 = target: T3, Pex13, P80667; details: median of control spots 1341
Nbp2, Q12163 = target: T4, Nbp2, Q12163; details: median of control spots 357
Bem1-1, P29366 = details: median of control spots 4282
Abp1, P15891 = target: T5, Abp1, P15891; details: median of control spots 935
Cyk3, Q07533 = target: T6, Cyk3, Q07533; details: median of control spots 1451
Bzz1-1, P38822 = target: T7, Bzz1-1, P38822; details: median of control spots 4446
Hof1, Q05080 = target: T8, Hof1, Q05080; details: median of control spots 4086
Bud14, P27637 = target: T9, Bud14, P27637; details: median of control spots 956
Sla1-3, P32790 = target: T10, Sla1-3, P32790; details: median of control spots 5475
Sla1-2, P32790 = target: T11, Sla1-2, P32790; details: median of control spots 712
Sho1, P40073 = details: median of control spots 1148
Fus1, P11710 = target: T12, Fus1, P11710; details: median of control spots 1200
Lsb4, P32793 = target: T13, Lsb4, P32793; details: median of control spots 397
GST = details: median of control spots 978
Bbc1, P47068 = target: T14, Bbc1, P47068; details: median of control spots 796
Lsb1, P53281 = target: T15, Lsb1, P53281; details: median of control spots 388
Cdc25, P04821 = target: T16, Cdc25, P04821; details: median of control spots 969
Rvs167, P39743 = details: median of control spots 2707
Myo5, Q04439 = target: T17, Myo5, Q04439; details: median of control spots 471
Boi1, P38041 = target: T18, Boi1, P38041; details: median of control spots 1162
Lsb3, P43603 = target: T19, Lsb3, P43603; details: median of control spots 406
Boi2, P39969 = target: T20, Boi2, P39969; details: median of control spots 1161
Hse1, P38753 = target: T21, Hse1, P38753; details: median of control spots 1727

Rvs167, P39743, sequence (P39743 419-482): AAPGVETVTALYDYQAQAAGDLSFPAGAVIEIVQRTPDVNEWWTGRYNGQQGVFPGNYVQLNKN
Sho1, P40073, sequence (P40073 287-367): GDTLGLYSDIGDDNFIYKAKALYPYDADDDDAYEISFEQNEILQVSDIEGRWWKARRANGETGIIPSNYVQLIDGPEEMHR
Bem1-1, P29366, sequence (P29366 55-141): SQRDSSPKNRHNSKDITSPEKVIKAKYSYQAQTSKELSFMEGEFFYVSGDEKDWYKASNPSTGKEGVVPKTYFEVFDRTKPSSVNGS
Bem1-2, P29366, sequence (P29366 139-227): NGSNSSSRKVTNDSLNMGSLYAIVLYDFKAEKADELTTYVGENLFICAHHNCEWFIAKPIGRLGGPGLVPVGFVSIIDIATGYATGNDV

Row | Binder | SPOT intensity (Bem1-2, P29366) | SPOT intensity (Bzz1-2, P38822) | SPOT intensity (Myo3, P36006) | SPOT intensity (Pin3, Q06449) | SPOT intensity (Pex13, P80667) | SPOT intensity (Nbp2, Q12163) | SPOT intensity (Bem1-1, P29366) | SPOT intensity (Abp1, P15891) | SPOT intensity (Cyk3, Q07533) | SPOT intensity (Bzz1-1, P38822) | SPOT intensity (Hof1, Q05080) | SPOT intensity (Bud14, P27637) | SPOT intensity (Sla1-3, P32790) | SPOT intensity (Sla1-2, P32790) | SPOT intensity (Sho1, P40073) | SPOT intensity (Fus1, P11710) | SPOT intensity (Lsb4, P32793) | SPOT intensity (GST) | SPOT intensity (Bbc1, P47068) | SPOT intensity (Lsb1, P53281) | further results
1 | RRRRRPHRIERPLSN | 5 | 5 | 7 | 1 | 2 | 74 | 1 | 133 | 5 | 2 | 4 | 24 | 25 | 0 | 270 | 43 | 6 | 1 | 515 | 0 | SPOT intensity (Cdc25, P04821): 28; SPOT intensity (Rvs167, P39743): 4; SPOT intensity (Myo5, Q04439): 1; SPOT intensity (Boi1, P38041): 9; SPOT intensity (Lsb3, P43603): 8; SPOT intensity (Boi2, P39969): 0; SPOT intensity (Hse1, P38753): 16
2 | GRLRPKRIAPWHLIQ | 6 | 4 | 0 | 5 | 8 | 10 | 0 | 25 | 1 | 0 | 1 | 3 | 41 | 0 | 83 | 6 | 0 | 0 | 57 | 0 | SPOT intensity (Cdc25, P04821): 0; SPOT intensity (Rvs167, P39743): 8; SPOT intensity (Myo5, Q04439): 0; SPOT intensity (Boi1, P38041): 2; SPOT intensity (Lsb3, P43603): 0; SPOT intensity (Boi2, P39969): 1; SPOT intensity (Hse1, P38753): 9
3 | IKKRNKIRLPSGSPE | 0 | 4 | 7 | 4 | 2 | 24 | 1 | 136 | 9 | 2 | 6 | 10 | 43 | 0 | 122 | 52 | 6 | 3 | 101 | 104 | SPOT intensity (Cdc25, P04821): 18; SPOT intensity (Rvs167, P39743): 4; SPOT intensity (Myo5, Q04439): 0; SPOT intensity (Boi1, P38041): 5; SPOT intensity (Lsb3, P43603): 0; SPOT intensity (Boi2, P39969): 3; SPOT intensity (Hse1, P38753): 6
4 | ALRRRLPVTRSKINW | 7 | 7 | 10 | 10 | 4 | 149 | 0 | 134 | 2 | 0 | 14 | 6 | 73 | 0 | 196 | 25 | 7 | 2 | 245 | 46 | SPOT intensity (Cdc25, P04821): 46; SPOT intensity (Rvs167, P39743): 8; SPOT intensity (Myo5, Q04439): 0; SPOT intensity (Boi1, P38041): 13; SPOT intensity (Lsb3, P43603): 4; SPOT intensity (Boi2, P39969): 1; SPOT intensity (Hse1, P38753): 35
5 | QHQQRQPKRPKRYSL | 147 | 17 | 2 | 2 | 6 | 21 | 1 | 106 | 1 | 0 | 3 | 8 | 78 | 5 | 115 | 55 | 101 | 8 | 211 | 5 | SPOT intensity (Cdc25, P04821): 22; SPOT intensity (Rvs167, P39743): 0; SPOT intensity (Myo5, Q04439): 2; SPOT intensity (Boi1, P38041): 13; SPOT intensity (Lsb3, P43603): 36; SPOT intensity (Boi2, P39969): 4; SPOT intensity (Hse1, P38753): 33
6 | RSLRKRPTSPSISGS | 5 | 21 | 9 | 8 | 5 | 198 | 0 | 224 | 1 | 0 | 13 | 22 | 44 | 1 | 295 | 44 | 5 | 3 | 175 | 26 | SPOT intensity (Cdc25, P04821): 52; SPOT intensity (Rvs167, P39743): 2; SPOT intensity (Myo5, Q04439): 2; SPOT intensity (Boi1, P38041): 5; SPOT intensity (Lsb3, P43603): 14; SPOT intensity (Boi2, P39969): 0; SPOT intensity (Hse1, P38753): 55

From publication PMC2756588
